The values below are quoted from earlier work in patent US20240209043A1, “NON-ANTIBODY BINDING PEPTIDES AND THEIR ANALOGS DUAL-TARGETING TO PD-1 AND PD-L1, AND USES THEREOF” (ORAL SUBSIDIARY SUN YAT-SEN UNIVERSITY HOSPITAL, priority 2021, published 2024).

As usually defined, the Kd is the constant that tells how readily two partners part at equilibrium.

In the data set the target is PD-1 (Homo sapiens, UniProt Q15116). Particulars: background section; read-out: Kd-value of antibody drug targeting PD-1.
Sequence of PD-1 (Q15116 25-288): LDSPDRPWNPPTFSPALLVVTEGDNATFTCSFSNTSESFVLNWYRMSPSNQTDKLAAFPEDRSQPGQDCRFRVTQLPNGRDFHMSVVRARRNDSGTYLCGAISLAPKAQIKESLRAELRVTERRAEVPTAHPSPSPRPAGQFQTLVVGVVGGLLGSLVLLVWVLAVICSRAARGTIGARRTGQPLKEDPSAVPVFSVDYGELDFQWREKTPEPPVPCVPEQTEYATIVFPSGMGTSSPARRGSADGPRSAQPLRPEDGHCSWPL

B1: Camrelizumab (antibody, chains of the INN, looked up, V domains shown)
VH: EVQLVESGGGLVQPGGSLRLSCAASGFTFSSYMMSWVRQAPGKGLEWVATISGGGANTYYPDSVKGRFTISRDNAKNSLYLQMNSLRAEDTAVYYCARQLYYFDYWGQGTTVTVSS
VL: DIQMTQSPSSLSASVGDRVTITCLASQTIGTWLTWYQQKPGKAPKLLIYTATSLADGVPSRFSGSGSGTDFTLTISSLQPEDFATYYCQQVYSIPWTFGGGTKVEIK
notes: marketed IgG4 antibody drug targeting PD-1
With B1, the Kd was 3.31 nM.
